Where a chain is given by its changes, count along the chain named.

One test concerns the target T1, mTEM8-Fc (UniProt Q9CZ52 31-319, limits assumed).
T1 construct: not shown: Fc part
T1 sequence (looked up): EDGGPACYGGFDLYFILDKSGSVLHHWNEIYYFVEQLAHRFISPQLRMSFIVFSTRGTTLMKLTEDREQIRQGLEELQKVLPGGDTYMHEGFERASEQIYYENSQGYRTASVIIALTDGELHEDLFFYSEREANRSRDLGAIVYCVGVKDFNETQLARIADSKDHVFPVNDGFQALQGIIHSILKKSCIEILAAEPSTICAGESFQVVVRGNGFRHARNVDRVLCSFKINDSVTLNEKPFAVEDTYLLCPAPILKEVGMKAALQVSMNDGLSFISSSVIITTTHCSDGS
Description: Biacore affinity measurement of Fab.

Another test concerns the target T2, hTEM8-AP (Homo sapiens, UniProt Q9H6X2 33-321).
T2 sequence: T1 sequence (looked up) with R40K, S104R, A241S
Description: Biacore affinity measurement of Fab. On the technique in general: SPR reads the build-up and loss of mass on a sensor chip optically.

B1: M825 anti-TEM8 fragment antigen-binding (Fab) (Fab, V domains shown)
VH: QVQLVQSGAEVKKPGTSVKVSCKVPGYTFSSYAISWVRQAPGQGLEWMGGIIPIFGTTNYAQKFQGRVTITGEESTSTVYMELSSLRSEDTAVYYCARDTDYMFDYWGQGTLVTVSS
VL: SSELTQDPVVSVALGETVSITCQGDNLRDFYASWYQQKPGQAPLLVMYGKNRRPSGIPDRFSGSTSGNTLSLTITGAQAEDEADYYCSSRDNSKHVVFGGGTKVTVL
notes: also called M825 Fab
As a reminder, the Kd is the constant that tells how readily two partners part at equilibrium. In general, koff refers to the rate constant with which the complex falls apart. Low values mean a long-lived complex, high ones a short-lived complex. One may read the kon as the second-order rate constant of association. High values mean fast association, low ones slow association. In the test with mTEM8-Fc, B1 returned a Kd of 0.0526 nM, a koff of 8.94e-05 s⁻¹ and an association rate constant (kon) of 1.7e+06 M⁻¹ s⁻¹. In the test with hTEM8-AP, this molecule gave a Kd of 0.0591 nM, an off-rate constant (koff) of 0.00018 s⁻¹ and a kon of 3.05e+06 M⁻¹ s⁻¹.

B2: M830 anti-TEM8 fragment antigen-binding (Fab) (Fab, V domains shown)
VH: EVQLVESGGGVVQPGRSVRLSCAASGFTFSTYTMHWVRQAPGKGLEWVAIISNDGSNKYYADPVRGRFTISRDNSKNTLYLQMNSLRAEDTAVYYCVRGSSWYRGNWFDPWGQGTLVTVSS
VL: DIQMTQSPSSLSASVGDRVTIACRASQTISRYLNWYQQKPGKAPKLLIYAASSLQSGVSSRFSGSGSGTEFTLTISSLQPEDFATYFCQQTYSPPITFGQGTRLEIKR
notes: also called M830 Fab
With B2, in the test with mTEM8-Fc, the Kd worked out at 3.74 nM, the koff was determined as 0.0029 s⁻¹ and the kon stood at 775000 M⁻¹ s⁻¹. In the test with hTEM8-AP, this molecule displayed a Kd of 1.57 nM, a koff of 0.000953 s⁻¹ and an association rate constant (kon) of 607000 M⁻¹ s⁻¹.

Source of the values: patent US20170095575A1 (BIOMED VALLEY DISCOVERIES, published 2017).
